# Test results from the RNAGym collection of RNA variant scans (doi:10.7554/elife.80360).
# B1: Hairpin Ribozyme (parent)
# chain: GUCCUCUUUCACGUGCGCGUGAAAGAGAGAAGUGAACCAGAGAAACACACGUUGUGGUAUAUUACCUGGUA
# Variants of: B1
# Assay: self-cleavage, relative activity (ratio to wild type); higher = more cleavage; co-transcriptional
row,Variant,self-cleavage
1,GUCCUCUUUCACGUGCGCGUGAAAGAGAGAAGCGAACCAGAGAAACACACGUUGUAGUAUAUUACCUGGUA,0.0589
2,GUCCUCUUUCACGUGCGCGUGAAAGAGAGAAGCGAACCAGAGAAACACACGUUGUCGUAUAUUACCUGGUA,0.167
3,GUCCUCUUUCACGUGCGCGUGAAAGAGAGAAGCGAACCAGAGAAACACACGUUGUGGUAAAUUACCUGGUA,0.14
4,GUCCUCUUUCACGUGCGCGUGAAAGAGAGAAGCGAACCAGAGAAACACACGUUGUGGUAGAUUACCUGGUA,0.0999
5,GUCCUCUUUCACGUGCGCGUGAAAGAGAGAAGAGAACCAGAGAAACACACGUUGUGGAAUAUUACCUGGUA,0.0766
6,GUCCUCUUUCACGUGCGCGUGAAAGAGAGAAGAGAACCAGAGAAACACACGUUGUGGGAUAUUACCUGGUA,0.135
7,GUCCUCUUUCACGUGCGCGUGAAAGAGAGAAGGGAACCAGAGAAACACACGUUGUGGUAUAUUACCUAGUA,0.151
8,GUCCUCUUUCACGUGCGCGUGAAAGAGAGAAGGGAACCCGAGAAACACACGUUGUGGUAUAUUACCUGGUA,0.149
9,GUCCUCUUUCACGUGCGCGUGAAAGAGAGAAGAGAACCAGAGAAACACACGUUGUGGUAUACUACCUGGUA,0.184
10,GUCCUCUUUCACGUGCGCGUGAAAGAGAGAAGCGAGCCAGAGAAACACACGUUGUGGUAUAUUACCUGGUA,0.0993
11,GUCCUCUUUCACGUGCGCGUGAAAGAGAGAAGCGAACCAGAGAAAAACACGUUGUGGUAUAUUACCUGGUA,0.0278
12,GUCCUCUUUCACGUGCGCGUGAAAGAGAGAAGGGAGCCAGAGAAACACACGUUGUGGUAUAUUACCUGGUA,0.0878
13,GUCCUCUUUCACGUGCGCGUGAAAGAGAGAAGAGAACCAGAGAAACACACGUUGAGGUAUAUUACCUGGUA,0.0922
14,GUCCUCUUUCACGUGCGCGUGAAAGAGAGAAGCGAACCAGAGAAACACACGUUGUGGUAUAUUAUCUGGUA,0.2
15,GUCCUCUUUCACGUGCGCGUGAAAGAGAGAAGGGAACCAGAGAAACACACGUUGUGGUAUAUUACCUGGUU,0.067
16,GUCCUCUUUCACGUGCGCGUGAAAGAGAGAAGGGAACCAGAGAAACACACGUUGUGGUAUAUUACCUGGUC,0.307
17,GUCCUCUUUCACGUGCGCGUGAAAGAGAGAAGCGAACCAGAGAAACACACGUUGAGGUAUAUUACCUGGUA,0.0653
18,GUCCUCUUUCACGUGCGCGUGAAAGAGAGAAGGGAACCAGAGAAACACACGUUGUGGUCUAUUACCUGGUA,0.139
19,GUCCUCUUUCACGUGCGCGUGAAAGAGAGAAGCGAACCAGAGAAACACACGUUGUGGUAUUUUACCUGGUA,0.163

row,Variant,self-cleavage
1,GUCCUCUUUCACGUGCGCGUGAAAGAGAGAAGCGAACCAGAGAAACACACGUUGUGGUAUCUUACCUGGUA,0.074
2,GUCCUCUUUCACGUGCGCGUGAAAGAGAGAAGCGAACCAGAGAAACACACGUUGUGGUAUAUUACCUCGUA,0.0535
3,GUCCUCUUUCACGUGCGCGUGAAAGAGAGAAGGGAACCAGAGAAGCACACGUUGUGGUAUAUUACCUGGUA,0.0332
4,GUCCUCUUUCACGUGCGCGUGAAAGAGAGAAGGGAACCAGAGAACCACACGUUGUGGUAUAUUACCUGGUA,0.112
5,GUCCUCUUUCACGUGCGCGUGAAAGAGAGAAGCGAACCAGAGAAACACACGUUGUGGUAUAUUACUUGGUA,0.149
6,GUCCUCUUUCACGUGCGCGUGAAAGAGAGAAGGGAACCAGAGAAACACACGUUGUGGUAUAUUUCCUGGUA,0.144
7,GUCCUCUUUCACGUGCGCGUGAAAGAGAGAAGCGAACCAGAGAAACACACGUUGUGGUAUAUAACCUGGUA,0.142
8,GUCCUCUUUCACGUGCGCGUGAAAGAGAGAAGGGAACCAGAGAAACACACGUUGUGGUAUAUUAGCUGGUA,0.122
9,GUCCUCUUUCACGUGCGCGUGAAAGAGAGAAGCGAACCAGAGAAACACACGUUGUGGUAUAUUACCGGGUA,0.21
10,GUCCUCUUUCACGUGCGCGUGAAAGAGAGAAGAGAACCAGAGAAACACACGUUGUGGUAUAUGACCUGGUA,0.27
11,GUCCUCUUUCACGUGCGCGUGAAAGAGAGAAGAGAACCAGAGAAACACACGUUGUGGUAUAUAACCUGGUA,0.0514
12,GUCCUCUUUCACGUGCGCGUGAAAGAGAGAAGCGAACCAGAGUAACACACGUUGUGGUAUAUUACCUGGUA,0.231
13,GUCCUCUUUCACGUGCGCGUGAAAGAGAGAAGCGAACCAGAGCAACACACGUUGUGGUAUAUUACCUGGUA,0
14,GUCCUCUUUCACGUGCGCGUGAAAGAGAGAAGAGAACCAGAGAAACACACGUUGUGGUAUAUUACCCGGUA,0.104
15,GUCCUCUUUCACGUGCGCGUGAAAGAGAGAAGCGAACCAGUGAAACACACGUUGUGGUAUAUUACCUGGUA,0.159
16,GUCCUCUUUCACGUGCGCGUGAAAGAGAGAAGGGAACCAUAGAAACACACGUUGUGGUAUAUUACCUGGUA,0.0849
17,GUCCUCUUUCACGUGCGCGUGAAAGAGAGAAGGGAACCAAAGAAACACACGUUGUGGUAUAUUACCUGGUA,0.245
18,GUCCUCUUUCACGUGCGCGUGAAAGAGAGAAGGGAACCACAGAAACACACGUUGUGGUAUAUUACCUGGUA,0.0649
19,GUCCUCUUUCACGUGCGCGUGAAAGAGAGAAGCGAACCAGAGAAACACACCUUGUGGUAUAUUACCUGGUA,0.0825
